{
  "source": "patent US20170340698A1",
  "about": "“CYCLIC PEPTIDE SPECIFICALLY BINDING TO APOPTOTIC CELLS AND USE THEREOF” (KYUNGPOOK NATIONAL UNIVERSITY INDUSTRY-ACADEMIC COOPERATION …, priority 2014, published 2017)",
  "tested_on": "SNU16 human stomach cancer cell line",
  "test": "In vitro binding of FITC-conjugated peptides to apoptotic cells, flow cytometry",
  "format": "cell-based",
  "conditions": "fluorescent probe",
  "description": "SNU16 human stomach cancer cell line was purchased from KCLB (Seoul, Korea). […] After treatment, cells were incubated with fluorescein isothiocyanate (FITC)-conjugated linear or cyclic form of ApoPep-1 peptide at 4[…] for 1 hour. As control, cells were stained with Alexa488-conjugated annexin V (Life technologies, Carlsbad, Calif.) for 15 min at room temperature. Percentages of fluorescent (the liner or cyclic form of ApoPep-1 peptide-bound or annexin V-bound fluorescence) cells were calculated by measurement and analysis methods through the selection of the fluorescent signals (the liner or cyclic form of ApoPep-1 peptide-bound or annexin V-bound fluorescence), which were shown in the respective cells when cells in an emulsion state pass through a constant fluorescence detection zone, using flow cytometry (Fluorescence-activated cell sorting (FACS), FACS calibur, BD Biosciences, MA, USA).\nCyclic form of ApoPep-1 (cyclo[CQRPPRC] peptide of the present invention) was prepared by adding cysteine residue at the carboxy terminal of linear form of ApoPep-1 (CQRPPR) and performing cyclization through disulfide bonding.",
  "data": [
    {"molecule": "annexin V: existing apoptotic probe used as control, Alexa488-conjugated (Life technologies) (protein, UniProt P08758 2-320, looked up, Alexa488 conjugate) Annexin A5: AQVLRGTVTDFPGFDERADAETLRKAMKGLGTDEESILTLLTSRSNAQRQEISAAFKTLFGRDLLDDLKSELTGKFEKLIVALMKPSRLYDAYELKHALKGAGTNEKVLTEIIASRTPEELRAIKQVYEEEYGSSLEDDVVGDTSGYYQRMLVVLLQANRDPDAGIDEAQVEQDAQALFQAGELKWGTDEEKFITIFGTRSVSHLRKVFDKYMTISGFQIEETIDRETSGNLEQLLLAVVKSIRSIPAYLAETLYYAMKGAGTDDHTLIRVMVSRSEIDLFNIRKEFRKNFATSLYSMIKGDTSGDYKKALLLLCGEDD", "values": [
      {"measurement": "percentage of apoptotic cells detected", "setting": "SNU16 cells treated with cetuximab alone (200 ug/ml) for 24 hours", "value": "~40", "unit": "%"},
      {"measurement": "percentage of apoptotic cells detected", "setting": "SNU16 cells treated with cisplatin (300 ng/ml) plus cetuximab in combination for 24 hours", "value": "~45", "unit": "%"},
      {"measurement": "percentage of apoptotic cells detected", "setting": "SNU16 cells treated with cisplatin alone (300 ng/ml) for 24 hours", "value": "approximately 43%"}
    ]}
  ]
}
